Among the data in paper PMC3217939 are Kd, koff and kon values, retold here.

For the test, the target named is Cotton leaf curl Kokhran virus-Dabawali V2, His-tagged (Cotton leaf curl Kokhran virus-Dabawali). As to the kind of experiment: SPR; BIAcore 2000, 25 C; His-tagged V2 immobilised on Ni-NTA chip (about 340-350 RU); GST-CP 100-800 nM flowed at 20 ul/min, 90 s association; 10 mM HEPES pH 7.4, 150 mM NaCl, 50 uM EDTA, 0.005% surfactant P-20; global fit, 1:1 Langmuir model. Background: SPR reads the build-up and loss of mass on a sensor chip optically.

On to “GST-CP fusion protein (coat protein of Cotton leaf curl Kokhran virus-Dabawali) (natural protein)”, for which the Kd (as a rule, the concentration at which binding is half-saturated) came out at 2600 nM; the koff – broadly, the rate constant with which the complex falls apart – was found to be 0.00267 s⁻¹; the kon (commonly the second-order rate constant of association) is 1030 M⁻¹ s⁻¹.
